From PMC6462090

Legend:
[1] = target: USP9X catalytic domain C1727A (human) (UniProt Q93008)
[2] = target: USP9X catalytic domain H1729A (human) (UniProt Q93008)

Km for hydrolysis of Ub-AMC, fold increase against WT [1]: 5 fold
Km for hydrolysis of Ub-AMC, fold increase against WT [2]: 7 fold
Substance: Ub-AMC (from UniProt P0CG48 1-76)
